Changes are numbered by the printed parent chain.
B1: ADI-14356 (antibody, V domains shown)
VH: QVQLQESGAGLLKPSETLSLTCAVYGGSFSGYYWSWIRQPPGKGLEWIGEINHSGSTNYNPSLKSRVTISVDTSKNQFSLKLSSVTAADTAVYYCARDQRIVVVGAATEPYYYYYGMDVWGQGTTVTVSS
VL: QPVLTQPPSVSVSPGQTARITCSGDALPKQYAYWYQQKPGQAPVLVIYKDSERPSGIPERFSGSSSGTTVTLTISGVQAEDEADYYCQSADSSGTYRVFGGGTKLTVL
notes: full-length IgG; also called Ab 24
B2: ADI-19478 (antibody, V domains shown)
VH: QVQLVESGPGVVKPSETLSLTCTVSGGPVSSRSYYWGWIRQPPGKGLEWIGSIYYSGSTYYNTSLKSRVTISVDTSKNQFSLKLSSVTAADTAVYYCAKLQYSTSGFDYWGQGTLVTVSS
VL: QPVLTQPPSVSEAPRQRVTISCSGSSSNIGNNAVSWYQQLPGKAPKLLIYYDDLVPSGVSDRFSGSKSGTSASLAISGLQSEDEADYYCAAWDDSLNGVVFGGGTKLTVL
notes: full-length IgG; also called Ab 180
B3: ADI-19503 (antibody, V domains shown)
VH: QVQLVQSGAEVKKPGASVKVSCKASGYTFTSYYMHWVRQAPGQGLEWMGIINPSGGSTSYAQKFQGRVTMTRDTSTSTVYMELSSLRSEDTAVYYCARDSLVNCSGGSCPGGPDYWGQGTLVTVSS
VL: SYVLTQPPSVSVSPGQTARITCSGDALPKKYAYWYQQKSGQAPVLVIYEDSKRPSGIPERFSGSSSGTMATLTISGAQVEDEADYYCYSTDSSGNHRVFGGGTKLTVL
notes: full-length IgG
B4: ADI-19497 (antibody, V domains shown)
VH: QVQLVQSGAEVKKPGASVKVSCKASGYTFTSYYMHWVRQAPGQGLEWMGIINPSGGSTSYAQKFQGRVTMTRDTSTSTVYMELSSLRSEDTAVYYCSRGYSYGYDYWGQGTLVTVSS
VL: NFMLTQPHSVSESPGKTVTISCTRSSGSIASNYVQWYQQRPGSSPTTVIYEDNQRPSGVPDRFSGSIDSSSNSASLTISGLKTEDEADYYCQSYDSSNWVFGGGTKLTVL
notes: full-length IgG
B5: ADI-25576 (antibody, V domains shown)
VH: EVQLVESGGGLVQPGGSLRLSCAASGFTFSSYWMHWVRQAPGKGLVWVSRINSDGSSTSYADSVKGRFTISRDNAKNTLYLQMNSLRAEDTAVYYCARGLYNWNHDYWGQGTLVTVSS
VL: B4 VL with W99V, L107V
notes: full-length IgG; also called Ab 460
B6: ADI-21046 (antibody, V domains shown)
VH: EVQLVESGAEAKKPGESLRISCTVSGYSFSKYWVGWVRQTPGKGLEWMGIIDPTDSDTRYSPSFQGQVTISVDNSINTAYLQWSSLKASDTAIYYCARRGQAKCVGNCPRDFMDVWGKGTTVTVSS
VL: SYVLTQPPSVSGAPGQRVTISCAGSSSNIGAGYEVHWYQQLPGTAPKLLIYANRNRPSGVPDRFSGSRSGTSASLAISGLQAEDEADYYCQSYDNNLSGSWVFGGGTKLTVL
B7: ADI-21055 (antibody, V domains shown)
VH: EVQLVESGGGVVQPGRSLRLSCVGSGFTFSRYGMQWVRQAPGKGLEWAAVIWNDGSNEHYADSVKGRFTISRDNSKNTMYLQMNSLRAEDTALYYCAREGEYSSSWSHWSYLDLWGRGTLVTVSS
VL: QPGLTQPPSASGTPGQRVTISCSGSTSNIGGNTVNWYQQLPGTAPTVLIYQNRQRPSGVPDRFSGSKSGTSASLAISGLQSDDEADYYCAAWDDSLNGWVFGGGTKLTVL
B8: ADI-21061 (antibody, V domains shown)
VH: QVQLVQSGAEVKKPGSSVKVSCKASGGTFSNYPISWVRQAPGHGLEWMGRVVPTVGLANYAQNLQGRVTITADTSTNTVYMELRSLRSEDTGLYYCARRAVVDTYAFDIWGQGTLVTVSS
VL: QSALIQPASVSGFPGQSITISCTGASSDVGGYNFVSWYQQHPGKAPKLIIYEVTKRPSGVSNRFSGSESGNTASLTISGLQAEDEADYYCSSFRYTSSIVYVFGSGTKVTVL
B9: ADI-21062 (antibody, V domains shown)
VH: EVQLLESGGGLVKPGGSLRLSCAASGFTFSDYDMIWVRQAPGKGLEWVSSISRGSDYIYYADSLKGRFTISRDNARNSVTLQMNSLRAGDTALYFCARAELLDSGGYYLYYFDHWGQGTLVTVSS
VL: DIRMTQSPSSLSASVGDRVTITCRASQIIASYVNWYQKKPGKAPKVLIYAASRLQNGVPSRFSGSGSGTEFTLTISSLQPEDFATYYCQQSYSTSFTFGQGTKVDIK
notes: also called Ab 310
B10: ADI-21047 (antibody, V domains shown)
VH: QVQLQQWGAGLLKPSETLSLTCAVYGGSFSGKYWSWIRQPPGKGLEWIGEFNHDGTTYYNPSLKSRVTISADTPKNQFSLTLHSVTAADTAVYYCARLTILSDWGQGTLVTVSS
VL: DIRMTQSPSSLSASVGDRVTITCQASQDISNYLHWYQQKPGKAPKLLIYDASNLETGVPSRFSGSGSGTDFTFTIHSLQPEDLATYYCQQYYDLPRTFGQGTKLEIK
B11: ADI-21054 (antibody, V domains shown)
VH: QVQLVESGGGVVQPGRSLRLSCAASGFSFSNYGMHWVRQAPGKGLEWVVGISFDGSYIFHGGSVTGRFNISRDNSKNTLYLQVNSVRAEDTAVYYCARDPQYYDDWSGYSGLLHYYLYMDVWGKGTTVTVSS
VL: DIQLTQSPSTLSASVGDRVTITCRASQSIGTSLAWYQQIPGKAPKLLIYRASSLESGVPSRFSGGGSGTQFTLTISSLQPDDFATYYCQQYNNYSPTFGQGTKLEIK
B12: ADI-41222 (antibody, V domains shown)
VH: QVTLKESGGGVVQPGRSQRLSCTASGFNFHNYAMHWVRQAPGKGLEWVAVISYDGSNKNFADSVKGRFTISRDNSKNTLNLQMNNLRAEDTAVYYCVRDIVRGSPLFDYWGQGTLVTVSS
VL: QPVLTQPPSLSVAPGQTAWITCGGNNIGSKIVHWYQQKPGQAPVVVVYDDDDRPSGIPERFSGSNSGNTATLTIRRVEVGDEADYYCQVWDRSSDNYVFGTGTKVSVL
B13: ADI-36670 (antibody, V domains shown)
VH: QVQLVQSGAEVKKPGSSVKVSCKASGGTFSTYTINWVRQAPGQGLEWMGRITPSLGVPLSAQKFQGRITISADKSTTTAYMELSSLGSEDTAVYYCASLNYYDTTDYYLGYSDSWGQGTLVTVSS
VL: DIVLTQTPATLSVSPGERATLSCRASHSVSNNLAWYQQKPGQAPRLLIYSASTRATGIPARFSGRGSGTEFTLTISSLQPEDFAVYYCQQYNNWPPEYTFGQGTKVDIK
B14: ADI-36674 (antibody, V domains shown)
VH: EVQLLESGGGLVKPGGSLRLSCAASGFKFRSYSMNWVRQAPGKGLEWVSSISSSSSYVDYAGSLKGRFTISRDNAENSLYLQMNSLRAEDTAMYYCARAGSVPVAGTYNDYWGQGTLVTVSS
VL: QSVLTQPPSVSGAPGQRVTISCTGSSSNIGAGYDVHWYQHLPGTAPKLLIHGNNNRPAGVPDRFSGSKSGTSASLVITGLQADDEADYYCQSYDRSLSVLFGGGTKVTVL
B15: ADI-41594 (antibody, V domains shown)
VH: EVQLVESGGGLVKPGGSLRLSCAASGFSFSSYYMNWVRQAPGKGLEWVSSISPSSSYTNYADSVKGRFTISRDNAKDSLYLQMNSLRAEDTAVYYCARDGLLGITIFGVVQDYWGQGTLVTVSS
VL: QSVVTQPPSVSGAPGQRVTISCTGSSSNIGAGYDVHWYQQLPGTAPKLLIYGNTNRPSGVPDRFSASKSGTSASLAITGLQAEDEADYYCQSYDSSLSVVFGGGTKLTVL
B16: ADI-41563 (antibody, V domains shown)
VH: QVQLVESGPGLVKPSETLSLTCTVSDDSITNNFWTWIRQPPGKGLEWIGYIYYSGSTNYNPSLKSRITMSVDLSKNQFSLKLSSVTAADTAVYYCARLTSGGVDYWGQGTLVTVSS
VL: QSVLTQPPSLSGAPGQRVTISCTGSSSNIGADYHVHWYQQLPGTAPKLLIYQNTNRPSGVPDRFSASKSGTSVSLAITGLQAEDEADYYCQSYDSSLSAWVFGGGTKLTVL
B17: ADI-41344 (antibody, V domains shown)
VH: EVQLVESGGGLVKPGGSLRLSCAASGSSFSSYYMNWVRQAPGKGLEWVSSISSSSTYIDYADSVKGRFTISRDNAKNSLFLQMNSLRAEDTAVYYCARVSSPMIRGYYLDYWGQGTLVTVSS
VL: QPVLTQPPSVSGAPGQRVTISCTGSSSNIGAGYDVHWYQQLPGTAPKLVIHGNSNRPSGVPDRFSGSKSGTSASLAITGLQGEDEADYYCQSYDSSLSGSVFGGGTKLTVL
B18: ADI-41249 (antibody, V domains shown)
VH: QVQLVQSGAEVKKPGESLKISCQVSRDTSTTYWIGWVRQMPGKGLEWMGIIFPGDSDTRYSPSFQGQVTISADKSIMTAYLQLTSLKASDTAMYYCATQALRGAFDIWGQGTMVTVSS
VL: B10 VL with M4L, H34N, N53Y, H76S, L83F, Y92D, P95L, R96F, Q100P
B19: ADI-41232 (antibody, V domains shown)
VH: QVQLVQSGAEVKKPGASVKVSCKASGYTFTHYGISWVRQAPGQGLEWMAWISAYNGNTNYAQKLQDRVTVTTDTSTSTAYMELRSLRSDDTALYYCARDSMGGTTLFDYWGQGTLVTVSS
VL: DIVLTQTPLSLPVTLGQPASISCRSSQSLVYSDGNTYLNWFQQRPGQSPRRLIYKVSNRDSGVPDRFTGSGSGTDFTLKISRVEAEDVGVYYCMQGTHWPPMYTFGQGTKLEIK

Biological target: T1, RSV prefusion F (preF), subtype B (respiratory syncytial virus subtype B)
T1 construct: also called Prefusion subtype B
Assay: BLI, IgG

Q: Which Kd does the source give for B1 here?
A: 13 nM

Biological target: T2, RSV postfusion F (postF), subtype B (respiratory syncytial virus subtype B)
T2 construct: also called Postfusion subtype B
Assay: BLI, IgG

Q: Which Kd does the source give for B2 here?
A: 0.713 nM

Q: Which Kd does the source give for B3 here?
A: 11.6 nM

Q: With B1 as the binder, how does the Kd read?
A: 4.98 nM

Q: With B4 as the binder, how does the Kd read?
A: 13.4 nM

Q: How did the Kd turn out when B5 was run?
A: 23.9 nM

Biological target: RSV prefusion F (preF), subtype A (respiratory syncytial virus, subtype A, UniProt P03420 26-513)
Assay: BLI, IgG

Q: With B6 as the binder, how does the Kd read?
A: 1.66 nM

Q: How did the Kd turn out when B7 was run?
A: 1.1 nM

Q: For B8, which Kd is on record?
A: 1.1 nM

Q: Which Kd does the source give for B9 here?
A: 1.24 nM

Q: How did the Kd turn out when B10 was run?
A: 2.11 nM

Q: For B11, which Kd is on record?
A: 0.185 nM

Biological target: T3, RSV postfusion F (postF), subtype A (respiratory syncytial virus, subtype A, UniProt P03420 26-513)
T3 construct: also called F ΔFP; Postfusion subtype A
Assay: BLI, IgG

Q: How did the Kd turn out when B6 was run?
A: 0.187 nM

Q: Which Kd does the source give for B7 here?
A: 0.185 nM

Q: Which Kd does the source give for B8 here?
A: 0.142 nM

Q: For B9, which Kd is on record?
A: 0.236 nM

Q: With B10 as the binder, how does the Kd read?
A: 0.29 nM

Q: For B11, which Kd is on record?
A: 0.372 nM

Biological target: RSV prefusion F (preF), subtype B (respiratory syncytial virus, subtype B)
Assay: BLI, IgG

Q: With B6 as the binder, how does the Kd read?
A: 0.694 nM

Q: With B7 as the binder, how does the Kd read?
A: 2.98 nM

Q: Which Kd does the source give for B8 here?
A: 2.76 nM

Q: For B9, which Kd is on record?
A: 0.827 nM

Q: B10 was tested. Which Kd did it give?
A: 0.756 nM

Q: Which Kd does the source give for B11 here?
A: 0.139 nM

Biological target: T4, RSV postfusion F (postF), subtype B (respiratory syncytial virus, subtype B)
T4 construct: also called F ΔFP; Postfusion subtype B
Assay: BLI, IgG

Q: How did the Kd turn out when B6 was run?
A: 0.224 nM

Q: B7 was tested. Which Kd did it give?
A: 4.35 nM

Q: With B8 as the binder, how does the Kd read?
A: 2.48 nM

Q: How did the Kd turn out when B9 was run?
A: 0.417 nM

Q: How did the Kd turn out when B10 was run?
A: 0.262 nM

Q: B11 was tested. Which Kd did it give?
A: 0.306 nM

Biological target: RSV F on RSV subtype A virus (RSV-A2) (Respiratory Syncytial Virus, subtype A, …, UniProt P03420 26-574)
Assay: cell-based or functional assay

Q: Which results are given for B12?
A: Neutralization - RSV A2 IC50 (pM): 39.9 pM; neut IC50 (ug/ml) subtype A (wright): 0.016 µg/mL

Q: Which results are given for B13?
A: Neutralization - RSV A2 IC50 (pM): 141 pM; neut IC50 (ug/ml) subtype A (wright): 0.008 µg/mL

Q: B14 was tested. Which “Neutralization - RSV A2 IC50 (pM)” value did it give?
A: 190 pM

Q: And the “neut IC50 (ug/ml) subtype A (wright)” value?
A: 0.014 µg/mL

Q: What does the source list for B15?
A: Neutralization - RSV A2 IC50 (pM): 208 pM; neut IC50 (ug/ml) subtype A (wright): 0.041 µg/mL

Q: Which “Neutralization - RSV A2 IC50 (pM)” value does the source give for B16 here?
A: 139 pM

Q: What about the “neut IC50 (ug/ml) subtype A (wright)” value of the same binder?
A: 0.032 µg/mL

Q: Which results are given for B17?
A: Neutralization - RSV A2 IC50 (pM): 229 pM; neut IC50 (ug/ml) subtype A (wright): 0.064 µg/mL

Q: What does the source list for B18?
A: Neutralization - RSV A2 IC50 (pM): 51.7 pM; neut IC50 (ug/ml) subtype A (wright): 0.006 µg/mL

Q: Which results are given for B19?
A: Neutralization - RSV A2 IC50 (pM): 104 pM; neut IC50 (ug/ml) subtype A (wright): 0.025 µg/mL

Source: US20260258115A1 (MAPP BIOPHARMACEUTICAL, published 2026)
